Changes are numbered by the printed parent chain.

In this assay the target is ABL1 SH2 domain (Homo sapiens (clone BC059260 maps to …, UniProt P00519)). Briefly: ELISA. Background: ELISA stands for enzyme-linked immunosorbent assay.
Chain of ABL1 SH2 domain (Homo sapiens (P00519 whole entry, looked up, the tested form may be a part): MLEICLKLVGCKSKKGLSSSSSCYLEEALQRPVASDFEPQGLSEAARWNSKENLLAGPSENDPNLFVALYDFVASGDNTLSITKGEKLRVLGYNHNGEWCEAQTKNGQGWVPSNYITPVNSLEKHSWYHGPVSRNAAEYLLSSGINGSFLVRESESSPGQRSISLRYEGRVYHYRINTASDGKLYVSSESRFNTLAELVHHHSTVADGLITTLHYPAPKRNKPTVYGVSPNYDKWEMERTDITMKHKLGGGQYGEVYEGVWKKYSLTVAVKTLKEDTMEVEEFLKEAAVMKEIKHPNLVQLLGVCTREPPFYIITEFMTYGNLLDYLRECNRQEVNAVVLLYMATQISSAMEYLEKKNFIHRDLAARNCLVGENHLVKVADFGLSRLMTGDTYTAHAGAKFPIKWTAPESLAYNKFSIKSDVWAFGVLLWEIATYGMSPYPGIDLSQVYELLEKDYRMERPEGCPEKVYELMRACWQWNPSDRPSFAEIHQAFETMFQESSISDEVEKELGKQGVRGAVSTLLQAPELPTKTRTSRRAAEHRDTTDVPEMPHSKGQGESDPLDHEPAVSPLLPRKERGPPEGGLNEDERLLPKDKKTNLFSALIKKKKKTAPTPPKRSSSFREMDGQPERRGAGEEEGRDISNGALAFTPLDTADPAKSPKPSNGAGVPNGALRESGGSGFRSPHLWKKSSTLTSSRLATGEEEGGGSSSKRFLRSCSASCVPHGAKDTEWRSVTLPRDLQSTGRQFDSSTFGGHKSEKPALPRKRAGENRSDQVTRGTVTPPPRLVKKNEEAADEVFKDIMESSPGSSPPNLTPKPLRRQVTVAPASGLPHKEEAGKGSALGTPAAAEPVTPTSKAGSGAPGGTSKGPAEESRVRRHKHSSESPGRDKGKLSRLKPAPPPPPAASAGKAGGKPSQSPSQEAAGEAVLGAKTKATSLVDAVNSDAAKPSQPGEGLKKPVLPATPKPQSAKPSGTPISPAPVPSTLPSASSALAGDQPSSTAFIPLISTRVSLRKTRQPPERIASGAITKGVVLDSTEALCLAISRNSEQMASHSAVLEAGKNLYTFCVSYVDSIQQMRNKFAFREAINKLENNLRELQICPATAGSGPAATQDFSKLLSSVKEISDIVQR

B1: scFv 43H02 (Group ai, selected on ABL1) (scFv, V domains shown)
VH: EVQLLESGGGLVKPGGSLRLSCAASGFTFDDYAMHWVRQAPGKGLEWVSGISWNSGSIGYADSVKGRFTISRDNAKNSLYLQMNSLRAEDTALYYCAKGGPGIRYPDAFDIWGQGTLVTVSS
VL: not shown
Take B1: the binding result is listed as “binds”.

B2: scFv 43_E02 (Group aiii, selected on ABL1) (scFv, V domains shown)
VH: B1 VH with K13Q, G16R, L117M
VL: DIQMTQSPSSLSASVGDRVTITCRASQSIRNDLGWYQQKPGKAPKLLIYAASSLQSGVPSRFSGSGSGTDFTLTISSLQPEDFATYYCQQSSSTPITFGGGTKVEIK
For B2, the binding result is on record as “binds”.

Values taken from paper PMC2841545 (Protein Engineering, Design and Selection, 2010).
